According to the DeepSol protein solubility set:

Experiment: soluble on expression in E. coli; label from the status in PepcDB or PDB records

Sequence | soluble on expression in E. coli
MSLWMYIHKIMKLSYKRVILTRELEDIKKDKPLFEREGFKVLELPLIQTKVLEFNLPDEEFDYIVFQSKKAVKIFLGKVNLKGNKKIVAVGKKTAEELEKLGYKADFIPENESAKGLIELFKRLPKGKVLIPRSKIGRTELIKFLKETSFEVFALDVYTTEYVFYTREELLEKLNKGDFIIFYSPSAVKAFFANLQMHKIPKDSLSLKFVAIGKTTKEELQKHSVKNVITSERPSTEDIVKKLKELARDLQKEGHHHHHH | soluble
ASEKVEMNLVTSQGVGQSIGSVTITETDKGLEFSPDLKALPPGEHGFHIHAKGSCQPATKDGKASAAESAGGHLDPQNTGKHEGPEGAGHLGDLPALVVNNDGKATDAVIAPRLKSLDEIKDKALMVHVGGDNMSDQPKPLGGGGERYACGVIK | soluble
MGSDKIHHHHHHMVTIQNDRFTATINEVGAELTHLVDQASHRDLIWNNDLWPKHAPVLFPAIGRSNEDSYLIDGQRYEMPQHGFVSGETFMIVDQTPTAVTLSLTANAATRVYYPFYFELQVTFTLVATGLNLTFSVQNHGQQDLSYSLGSHPAFNVPFEAGEAFTDYELVLDPAPTDLQQFEIVKTPNPYRSGKELPVTTDKGVIKLNYPMFDAGLIILKAPNLAHLTLQSTKSKHSISLNLDDFDYVTLWTKEGAQAPFLCLEPFNGLPDVAGDLRELATKEGNHHVAVGQSETMAYTITVD | not soluble
MASATLPRFDLMGWDKKDIADPYPVYRRYREAAPVHRTASGPGKPDTYYVFTYDDVVRVLSNRRLGRNARVASGDTDTAPVPIPTEHRALRTVVENWLVFLDPPHHTELRSLLTTEFSPSIVTGLRPRIAELASALLDRLRAQRRPDLVEGFAAPLPILVISALLGIPEEDHTWLRANAVALQEASTTRARDGRGYARAEAASQEFTRYFRREVDRRGGDDRDDLLTLLVRARDTGSPLSVDGIVGTCVHLLTAGHETTTNFLAKAVLTLRAHRDVLDELRTTPESTPAAVEELMRYDPPVQAVTRWAYEDIRLGDHDIPRGSRVVALLGSANRDPARFPDPDVLDVHRAAERQVGFGLGIHYCLGATLARAEAEIGLRALLDGIPALGRGAHEVEYADDMVFHGPTRLLLDLPDAALEHHHHHH | soluble
MKVAGTSAPPETAPAASRPGLRELKKQRTRDLLLRSALELFTERGYEETTVDDIAEAADVSQRTFFRYFASKEDAAFFVARLAESHFVRAVLARPPEEAPLDALRRALAESWSTIGEAVEQLVPLELHMRFYRVIESTPALLAAHLRRATELEEEIARVVAVREGLDVDTDPRPRVIVAVFGAVMRVTERIWSARDDASLAALRDLTADYLDQVAPALTGNWRRAET | soluble
MFIVLNAPVRGRYCAPMTQFASPVLHSLLDTDAYKLHMQQAVFHHYYDVHVAAEFRCRGDDLLGIYADAIREQIQAMQHLRLQDDEYQWLSALPFFKADYLNWLREFRFNPEQVTVSNDNGKLDIRLSGPWREVILWEVPLLAVISEMVHRYRSPQADVAQALDTLESKLVDFSALTAGLDMSRFHLMDFGTRRRFSREVQETIVKRLQQESWFVGTSNYDLARRLSLTPMGTQAHEWFQAHQQISPDLANSQRAALAAWLEEYPDQLGIALTDCITMDAFLRDFGVEFASRYQGLRHDSGDPVEWGEKAIAHYEKLGIDPQSKTLVFSDNLDLRKAVELYRHFSSRVQLSFGIGTRLTCDIPQVKPLNIVIKLVECNGKPVAKLSDSPGKTICHDKAFVRALRKAFDLPHIKKASMAGDPLEHHHHHH | not soluble
MISVMQQMINNDSPEDSKESITSVQQTPFFWPSAAAAIPSIQGESRSERESETGSSPQLAPSSTGMVMPGTAGMYGFGPSRMPTANEFGMMMNPVYTDFYQNPLASTDITIPTTAGSSAATTPNAAMHLPWAISHDGKKKRQPYKKDQISRLEYEYSVNQYLTNKRRSELSAQLMLDEKQVKVWFQNRRMKDKKLRQRHSGPFPHGAPVTPCIERLIN | not soluble
MAYDSRLPEQRDPATDPSANYDYQGDSVNRPDLVSALEQRVDGDVRFDTYTRELFATDASAYEQLPIGVVSPVSTEDVVAVMEYCAAEDIPVLPRGGGTSLAGQAVNEAVVLDFKRYMDE | not soluble
MDALELLINRRSASRLAEPAPTGEQLQNILRAGMRAPDHKSMQPWHFFVIEGEGRERFSAVLEQGAIAAGSDDKAIDKARNAPFRAPLIITVVAKCEENHKVPRWEQEMSAGCAVMAMQMAAVAQGFGGIWRSGALTESPVVREAFGCREQDKIVGFLYLGTPQLKASTSINVPDPTPFVTYFHH | soluble
MGFFVSEGERCMTYCATEVTFPQGITSLETQVMLLQTHQNGMDIVTYSTPFHPVSHIWPDHPADRGILIWQGSEYAVTDCVVGAIEQASGHLYVGNNIPVKREESGWLFVVVHRLGEVIAACQVGDKVQLQVDTQYQASLSRGHSAGHLGYLALNKVLAQGYWRKDAERKDPQGYFDFNSYAQISSDVTPDCSTDVYRLGKTLRKRGLNSDDVLRDLSFIEQKTNEQLAQWLALASPIRLECTGSTLTDSRYWECDLHEANIARIPCGGTHCKGLTAFQSIQVTLKQVDEQHIEAVTCAQPSESELEHHHHHH | soluble
NSLDNQVRLLLEDSVPKYNASYFLESKTSEINRRVEALQAVDNKVQLTEQAMQVNEQLASISTVLKSNKMSSEFYQLLESEAGLASLLEKYVDMISTRIDQTRRVDQLMEQINWLHQDIRSELKPVRQEVHWQIERVNDSKEIQNLLVQLSTLQRVIDIESAVYDMAIDVAGASMPEQVDNGMKVIHFRLMDLQESSTTLMNQPTSIAYKQLLQELVVVLSPEGAFDKQLMSLVTLNGDIQKIQEQIALSMEAIHQQIGELVSTADQTFKQVKSETAERVSYGN | not soluble
MTLNLSVDEVLTTTRSVRKRLDFDKPVPRDVLMECLELALQAPTGSNSQGWQWVFVEDAAKKKAIADVYLANARGYLSGPAPEYPDGDTRGERMGRVRDSATYLAEHMHRAPVLLIPCLKGREDESAVGGVSFWASLFPAVWSFCLALRSRGLGSCWTTLHLLDNGEHKVADVLGIPYDEYSQGGLLPIAYTQGIDFRPAKRLPAESVTHWNGW | soluble
MSLTQMNYAKEGIFTKEMQIVAQKENLSKDFLLENIACGKIIIPANINHKSLDPNGIGFGLRTKVNVNLGVSNDCVDYSEEMKKVELAHKFGIEAIMDLSNYGKTSRFRDELVNVSKAMIGTVPVYDAVGFLEKDLKQINAKDFLDVVYHHAKSGVDFMTIHAGINSRAAHIFKQSKRLTNIVSRGGSVLYAWMMMKDAENPFFEYYDDLLDICLKYDVTLSLGDALRPGSTHDASDGAQISELIELSLLTQRAWDVGIQVMIEGPGHMAINEIEANMQLEKRLCKGAPFYVLGPLVTDIGAGYDHISGAIGGAVAAASGADMLCYVTPAEHLRLPNLEDVREGIVATKIAAHAGDIAKLPKERARDDEMSKARQEIDWEKMFKLAIDGEKAKKMFNERRPDDLNSCSMCGKMCAMNTMNQILKGEDVSLAEGHHHHHH | soluble
MEKTYKLPIVLGTDPENTIRIDKLPPLKGAFAVHIHESETENNAHIKLEYGDTEYCLSLYVFNYPKFLRNETVRVRNYDLWPKWIMFAARLPNGKLHPKSGGKVYREDAVIVGEGNYELENPFISFKYSDGRILNFRIEFYRYLRYKSPKYGPSFRSEYWFIGVD | not soluble
MSEIEELVCIEASVTRKSTSNTVEIRESRRNKVTLGSSDSPAFPTPHLFLKNIVSFDEQSMYNLLYPRLQDPNLCSILSFKIAFEAKRVPGPLYISYDVTLTPQIFEEPDMETCGLCLLEEQHLFDMPNCAHVFHGDCIDKWLSTSNNCPLCGVEIMDDDE | soluble
MTVEPFRNEPIETFQTEEARRAMREALRRVREEFGRHYPLYIGGEWVDTKERMVSLNPSAPSEVVGTTAKAGKAEAEAALEAAWKAFKTWKDWPQEDRSRLLLKAAALMRRRKRELEATLVYEVGKNWVEASADVAEAIDFIEYYARAALRYRYPAVEVVPYPGEDNESFYVPLGAGVVIAPWNFPVAIFTGMIVGPVAVGNTVIAKPAEDAVVVGAKVFEIFHEAGFPPGVVNFLPGVGEEVGAYLVEHPRIRFINFTGSLEVGLKIYEAAGRLAPGQTWFKRAYVETGGKDAIIVDETADFDLAAEGVVVSAYGFQGQKCSAASRLILTQGAYEPVLERVLKRAERLSVGPAEENPDLGPVVSAEQERKVLSYIEIGKNEGQLVLGGKRLEGEGYFIAPTVFTEVPPKARIAQEEIFGPVLSVIRVKDFAEALEVANDTPYGLTGGVYSRKREHLEWARREFHVGNLYFNRKITGALVGVQPFGGFKLSGTNAKTGALDYLRLFLEMKAVAERF | soluble
MWCLPLSSGNDAHMTTHIQRSALLPYPAGFLYDLVNDVARYPEFLPWCSSATVLDASESQMRASLEIAKGGLSQKFMTRNTLVPGESIVMDLVEGPFEQFHGVWTFKPLGEKACKISLDLSFDYAGTIVRATLGPLFNQAANTLVDAFCQRAKELHGLEHHHHHH | not soluble
MWKISKENCEDLGFAIVCMFYDAINLSEFKLWLDIVVRDIPIDTIPLYIFDLIDFDKSIGEIYDVIGVVNYGYISNDQKNALTGIAFLRGIDVYDPPISKEKALKALEKYPEIYQRFQHFFPFVELPLF | not soluble
MLGMSYLRYVRIIGTVHVSPQSVKEVRNIILRENPDAVAVELDYGRLLSLLNGSSLTFSQAIKLGKIGILAYLLQGVEMALGKQVGVLPGSEMIEAFEVARSLGIPIYMIDMPIQVTLKRLFSVPIEEKIRGIIEIFLSIVYPKVELNLEDYISLELEFKRKYPTVYKILVEERNEFMARNLMRIVDILLERKKKIKIIAVVGLGHKRGIERILSHYSPKSIYLEHHHHHH | not soluble
MSHLLTMSELSEVEISEILKDAEDFANGKESKTTEQTFVANLFFENSTRTRFSFEVAEKRLGLDVLNFSADASSVQKGETLYDTIRTLESIGTKAVVIRHEQDRYFDELKDQVNIPILNAGDGCGNHPTQCLLDLLTIKQEFGRFEGLKIAIVGDVRHSRVARSNAEALTKLGATIYFASPEEWKDEDNTFGTYKPLDELVPEVDVMMLLRVQHERHDHYETDIMKEYHEKHGLTVEREKRMKEGSIIMHPAPVNRDVEIASELVECERSRIFKQMENGVYVRMAVLKRALPNVLGGMKHELFV | not soluble
MEGIDHLADERNKAEFDVEDMKIVWAGSRHAFEVSDRIARLVASDPVFEKSNRARLSRKELFKSTLRKCAHAFKRIIELRLNEEEAGRLRHFIDQPAYVDLHWGMFVPAIKGQGTEEQQKKWLSLANKMQIIGCYAQTELGHGSNVQGLETTATLDPKTDEFVIHTPTQTASKWWPGGLGKVSTHAVVYARLITNGKDYGIHGFIVQLRSLEDHSPLPNITVGDIGTKMGNGAYNSMDNGFLMFDHVRIPRDQMLMRLSKVTREGEYVPSDVPKQLVYGTMVYVRQTIVADASNALSRAVCIATRYSAVRRQFGAHNGGIETQVIDYKTQQNRLFPLLASAYAFRFVGEWLKWLYTDVTERLAASDFATLPEAHACTAGLKSLTTTATADGIEECRKLCGGHGYLWCSGLPELFAVYVPACTYEGDNVVLQLQVARFLMKTVAQLGSGKVPVGTTAYMGRAAHLLQCRSGVQKAEDWLNPDVVLEAFEARALRMAVTCAKNLSKFENQEQGFQELLADLVEAAIAHCQLIVVSKFIAKLEQDIGGKGVKKQLNNLCYIYALYLLHKHLGDFLSTNCITPKQASLANDQLRSLYTQVRPNAVALVDAFNYTDHYLNSVLGRYDGNVYPKLFEEALKDPLNDSVVPDGYQEYLRPVLQQQL | soluble
